Measured values from patent US8357833B2, “Corn plants and seed enhanced for asparagine and protein” (priority 2007, dated 2013).

Substrate: N[C@@H](CC(=O)O)C(=O)O
Experiment: Kinetics of recombinant his-tagged, refolded maize asparagine synthetase AsnS4 (substrate titration, asparagine by HPLC)
Assay type: biochemical, Zea mays
Settings: other: Zm AsnS4, 100 mM Hepes, pH 8.0, 10 mM MgCl2
Method: To assay asparagine synthetase activity, desalted protein extracts (10-50 μL) were added to wells containing 100 μL assay solution (100 mM Hepes, pH 8.0, 10 mM MgCl2, 2 mM aspartate, 5 mM DTT, 10 mM ATP, 1 mM amino(oxy)acetic acid (aspartate amino transferase inhibitor), 1 mM aspartic semialdehyde (asparaginase inhibitor). To start the reaction, glutamine (final concentration of 2 mM for standard assay) was added to the solution, which was then mixed. The assay mixture was then incubated for 1 to 2 hours. The reaction was then stopped by the addition of an equal volume of 20% (w/v) trichloroacetic acid. The mixture was then filtered to remove precipitate and asparagine was measured by HPLC. Sample size was increased from 0.5 μL to 2.5 μL for HPLC, excitation wavelength was reduced from 340 nm to 235 nm, and fluorimeter gain was increased from 10 to 13.
This example describes the cloning of the nucleotide sequence for AsnS1 (SEQ ID NO: 1), AsnS2 (SEQ ID NO: 3), AsnS3 (SEQ ID NO: 5) and AsnS4 (SEQ ID NO: 50) into E. coli expression vectors, as well as the expression, purification and kinetics of the recombinant forms of the four AsnS isoforms.
These vectors are expected to produce recombinant proteins with C-terminal histidine tags.
The E. coli expression vectors described in the previous paragraph were used to transform Rosetta DE5™ E. coli cells (Novagen). […]

B1: Zea mays asparagine synthetase Zm AsnS4 (SEQ ID NO: 51, encoded by SEQ ID NO: 50) (Zea mays) (protein)
chain: MCGILAVLGCSDCSQARRARILACSRRLKHRGPDWSGLYQHEGNFLAQQRLAIVSPLSGDQPLFNEDRTVVVVANGEIYNHKNVRKQFTGAHSFSTGSDCEVIIPLYEKYGENFVDMLDGVFAFVLYDTRDRTYVAARDAIGVNPLYIGWGSDGSVWMSSEMKALNEDCVRFEIFPPGHLYSSAGGGFRRWYTPHWFQEQVPRTPYQSLVLREAFEKAVIKRLMTDVPFGVLLSGGLDSSLVASVTKRHLVETDAAEKFGTELHSFVVGLEGSPDLKAAREVADYLGTTHHEFHFTVQDGIDAIEEVIYHDETYDVTTIRASTPMFLMARKIKSLGVKMVLSGEGSDELLGGYLYFHFAPNREELHRETCRKVKALHQYDCLRANKATSAWGLEVRVPFLDKEFVDVAMGMDPEWKMYDKNLGRIEKWVLRKAFDDEEHPYLPEHILYRQKEQFSDGVGYNWIDGLKSFTEQQVTDEMMNSAAQMFPYNTPVNKEAYYYRMIFERLFPQDSARETVPWGPSIACSTPAAIEWVEQWKASNDPSGRFISSHDSAATDRTGDKLAVANGGGHGAANGTVNGNDVAVAIAV
notes: 588 aa
- Km: 930 µM
